# Results reported in article PMC2764547 (Structure (London, England : 1993), 2009).
# Residue numbers refer to the chain shown, from its start. Numbers in names are those of the source. Where “and” joins values, the source holds several entries; their conditions need not be identical. Equal values may be shown once. Where a SMILES comes first, the peptide text is derived from it. Where no end group is shown, it is not given here. fluorescein = fluorescein-β-alanine label at the N-terminus; βAla = NCCC(=O)O
# T1: H198P E. coli DegS (residues 27-355) (E. coli) (UniProt P0AEE3)
# T1 sequence: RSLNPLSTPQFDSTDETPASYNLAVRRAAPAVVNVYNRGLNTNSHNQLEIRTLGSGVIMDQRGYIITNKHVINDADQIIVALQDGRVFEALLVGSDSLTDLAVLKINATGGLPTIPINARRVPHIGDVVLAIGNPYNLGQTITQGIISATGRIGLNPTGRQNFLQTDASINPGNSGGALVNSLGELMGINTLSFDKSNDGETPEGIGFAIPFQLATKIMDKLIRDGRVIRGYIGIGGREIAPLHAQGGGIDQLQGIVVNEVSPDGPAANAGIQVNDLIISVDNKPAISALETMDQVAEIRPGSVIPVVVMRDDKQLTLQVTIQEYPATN
# T2: H198P/D320A E. coli DegS (residues 27-355) (E. coli) (UniProt P0AEE3)
# T2 sequence: T1 sequence with D294A
# T3: H198P/K243D E. coli DegS (residues 27-355) (E. coli) (UniProt P0AEE3)
# T3 sequence: T1 sequence with K217D
# T4: H198P/D320A E. coli DegS (residues 27-355) (E. coli, UniProt P0AEE3 27-355, H198P | D320A)
# T4 sequence (looked up): T1 sequence with D294A
# T5: D320A E. coli DegS (residues 27-355) (E. coli, UniProt P0AEE3 27-355, D320A)
# T5 sequence (looked up): T1 sequence with P172H, D294A
# T6: H198P E. coli DegS (residues 27-355) (E. coli, UniProt P0AEE3 27-355, H198P)
# T6 sequence (looked up): T1 sequence
# T7: K243D E. coli DegS (residues 27-355) (E. coli, UniProt P0AEE3 27-355, K243D)
# T7 sequence (looked up): T1 sequence with P172H, K217D
# T8: H198P/K243D E. coli DegS (residues 27-355) (E. coli, UniProt P0AEE3 27-355, H198P | K243D)
# T8 sequence (looked up): T1 sequence with K217D
# T9: wild-type E. coli DegS (residues 27-355) (E. coli, UniProt P0AEE3 27-355)
# T9 sequence (looked up): T1 sequence with P172H
# B1: 35S-labeled variant of the periplasmic domain of E. coli RseA (residues 121-216) (domain or fragment)
# chain: YNGQSETSQQPETPVFNTLPMMGKASPVSLGVPSEATANNGQQQQVQEQRRRINAMLQDYELQRRLHSEQLQFEQAQTQQAAVQVPGIQTLGTQSQ
# modifications: 35S-labeled
# B2: DFP-modified H198P/D320A E. coli DegS (residues 27-355) (enzyme, UniProt P0AEE3 27-355, looked up)
# chain: T1 sequence with D294A
# modifications: Ser201 modified by diisopropylfluorophosphate (DFP); seen as monoisopropylphosphorylserine (Mis201) in the crystal structures
# B3: H198P/K243D: DegS double mutant (protein)
# chain: T1 sequence with K217D
# modifications: left off: His6, N-terminal, state not stated
# B4: H198P/D320A: DegS double mutant (protein)
# chain: T1 sequence with D294A
# modifications: left off: His6, N-terminal, state not stated
# B5: H198P: DegS variant with His^198 substituted by proline (protein)
# chain: T1 sequence
# modifications: left off: His6, N-terminal, state not stated
# What was measured:
# H198P DegS = H198P DegS (Escherichia coli, UniProt P0AEE3, H198P); assay: biochemical; parameters: species or system E. coli
# wild-type DegS [1] = biological target: T10, wild-type DegS (Escherichia coli, UniProt P0AEE3); assay: biochemical; parameters: species or system E. coli
# [2] = biological target: fluorescein-β-alanine-… OMP peptide; assay: fluorescence polarisation
# wild-type DegS [3] = biological target: T10, wild-type DegS; assay type: biochemical, E. coli; conditions: OMP peptide present, 23 ± 1 °C; average of two or more determinations
# H198P/K243D DegS = H198P/K243D DegS (Escherichia coli, UniProt P0AEE3, H198P/K243D); assay type: biochemical, E. coli; conditions: saturating OMP peptide, 23 ± 1 °C; average of two or more determinations
# [4] = biological target: T1, H198P E. coli DegS (residues 27-355) (E. coli)
# [5] = biological target: T2, H198P/D320A E. coli DegS (residues 27-355) (E. coli)
# [6] = biological target: T3, H198P/K243D E. coli DegS (residues 27-355) (E. coli)
# crystal structure = biological target: the molecule itself; assay: crystal structure
# RseA [7] = assay: Steady-state RseA cleavage; assay type: biochemical, E. coli; conditions: for Km: KM of RseA; for Km / Vmax: OMP peptide: None, 23 ± 1 °C, average of two or more determinations
# RseA [8] = assay: Cleavage of sub-KM RseA by DegS variants without OMP peptide; assay type: biochemical, E. coli; conditions: no OMP peptide
# [9] = biological target: T4, H198P/D320A E. coli DegS (residues …); assay: fluorescence polarisation
# [10] = biological target: T5, D320A E. coli DegS (residues 27-355); assay: fluorescence polarisation
# [11] = biological target: T6, H198P E. coli DegS (residues 27-355); assay: fluorescence polarisation
# [12] = biological target: T7, K243D E. coli DegS (residues 27-355); assay: fluorescence polarisation
# [13] = biological target: T8, H198P/K243D E. coli DegS (residues …); assay: fluorescence polarisation
# [14] = biological target: T9, wild-type E. coli DegS (residues 27-355); assay: fluorescence polarisation
# T10 sequence (P0AEE3 27-355): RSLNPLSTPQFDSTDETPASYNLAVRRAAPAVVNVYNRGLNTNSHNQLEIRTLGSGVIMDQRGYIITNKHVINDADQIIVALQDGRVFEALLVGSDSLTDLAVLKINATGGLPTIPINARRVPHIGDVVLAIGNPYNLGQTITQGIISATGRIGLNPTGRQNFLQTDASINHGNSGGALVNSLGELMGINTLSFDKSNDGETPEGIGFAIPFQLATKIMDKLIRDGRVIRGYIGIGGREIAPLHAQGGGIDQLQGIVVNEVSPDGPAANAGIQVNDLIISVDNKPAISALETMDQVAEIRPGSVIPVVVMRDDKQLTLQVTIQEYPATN
# Chain of H198P/K243D DegS (P0AEE3 27-355 H198P/K243D limits assumed): as the sequence (P0AEE3 27-355) above, with H172P, K217D counted along it
molecule,measurement,setting,value
DNRDGNVYQF,EC50,H198P DegS,4.4 ± 0.6 µM
same,EC50,wild-type DegS [1],50 ± 5 µM
PDZ domain of E. coli DegS (domain or fragment),Kd,[2],0.6 µM
DNRDGNVYYF,Vmax,wild-type DegS [3],1.1 ± 0.2 s^-1 enz^-1
same,Vmax,H198P/K243D DegS,1.8 ± 0.2 s^-1 enz^-1
NC(=O)CC[C@H](NC(=O)[C@@H](N)Cc1ccc(O)cc1)C(=O)N[C@@H](Cc1ccccc1)C(=O)O [YQF] (H-Tyr-Gln-Phe-OH),EC50,H198P DegS,29 ± 5 µM
same,EC50,wild-type DegS [1],260 ± 10 µM
B1,"KM of RseA cleavage, with saturating YQF peptide",[4],69 µM
same,"KM of RseA cleavage, with saturating YYF peptide",[4],64 µM
same,"KM of RseA cleavage, with saturating … peptide",[4],94 µM and 130 µM
same,"KM of RseA cleavage, without OMP peptide",[4],560 µM
same,"KM of RseA cleavage, without OMP peptide",[5],110 µM
same,"KM of RseA cleavage, without OMP peptide",[6],70 µM
B2,stoichiometry N,crystal structure,3
B3,Km,RseA [7],70 ± 5 µM
same,Vmax,RseA [7],1.2 ± 0.1 s^-1 enz^-1
B4,Km,RseA [7],110 ± 10 µM
same,Vmax,RseA [7],1.6 ± 0.2 s^-1 enz^-1
B5,RseA cleavage rate relative to wild-type DegS,RseA [8],150 fold
same,Km,RseA [7],560 ± 40 µM
same,Vmax,RseA [7],1.4 ± 0.3 s^-1 enz^-1
same,activity with high RseA alone relative to best OMP-peptide activation,"RseA [7]; high concentrations of RseA, no OMP peptide",about 60%
{fluorescein-βAla}-KKDNRDGNYYF [fluorescein-β-alanine-KKDNRDGNYYF OMP peptide],Kd,[9],0.45 µM
same,Kd,[10],1.1 µM
same,Kd,[11],1.9 µM
same,Kd,[12],3.1 µM
same,Kd,[13],0.68 µM
same,Kd,[14],4.6 µM
